Bridges are numbered along the chain shown (N, C = ends). Where no end group is shown, it is not given here. [ ]: non-standard residue; d: D form. The star is where a group is joined. Biotin = O=C1N[C@H]2[C@H](CS[C@H]2CCCCC(=O)*)N1; R8 = C=CCCCCCC[C@@](C)(N)C(=O)O; S5 = C=CCCC[C@](C)(N)C(=O)O

The target of test [1] is T1, recombinant HDMX (amino acids 1-490 of SEQ ID NO:104) (Homo sapiens, UniProt O15151).
T1 construct: thioredoxin (N, cleaved yes); S tag (N, cleaved yes); hexahistidine (N, cleaved yes); made in house; host or cells: E. coli (inferred: pET32-LIC vector, handled as described for HDM2 in BL21(DE3))
T1 sequence (O15151 1-490): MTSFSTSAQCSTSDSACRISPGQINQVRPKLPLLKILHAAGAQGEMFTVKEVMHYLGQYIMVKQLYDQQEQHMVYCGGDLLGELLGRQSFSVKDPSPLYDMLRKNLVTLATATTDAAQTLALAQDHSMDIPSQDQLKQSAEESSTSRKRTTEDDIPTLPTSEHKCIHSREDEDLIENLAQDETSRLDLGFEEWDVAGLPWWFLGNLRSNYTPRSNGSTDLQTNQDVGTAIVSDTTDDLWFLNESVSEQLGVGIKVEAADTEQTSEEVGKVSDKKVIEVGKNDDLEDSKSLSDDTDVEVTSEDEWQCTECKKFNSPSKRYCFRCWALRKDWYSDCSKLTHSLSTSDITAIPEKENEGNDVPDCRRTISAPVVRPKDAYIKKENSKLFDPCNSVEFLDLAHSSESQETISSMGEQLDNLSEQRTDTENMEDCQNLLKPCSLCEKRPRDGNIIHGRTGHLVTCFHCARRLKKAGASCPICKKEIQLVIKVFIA
The test is described as follows: Competitive streptavidin pull-down of biotinylated peptides with 1:1 recombinant HDM2/HDMX mixture, HDMX western. Format: binding. The following applies: biotinylated stapled peptide, 1:1 mixture of recombinant HDM2 and HDMX.

Test [2] has as its target T2, recombinant HDM2 (amino acids 17-125 of SEQ ID NO:103) (human, UniProt Q00987 17-125).
T2 construct: also called MDM2; not shown: thrombin cleavage site (pET28a vector)
Nature of the test: streptavidin pull-down of biotinylated peptide with recombinant HDM2 and HDMX (1:1 mixture per paragraph 301), western blot. (In general: A western blot detects proteins with antibodies after separation by electrophoresis.)

T2 sequence (Q00987 other isoform, or with tags, fused parts or gaps): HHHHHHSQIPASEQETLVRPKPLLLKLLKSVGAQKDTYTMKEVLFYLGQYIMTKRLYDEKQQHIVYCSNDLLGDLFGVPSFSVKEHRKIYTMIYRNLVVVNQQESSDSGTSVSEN

Consider “SAH-p53-4 D21R: Formula (I) stapled peptide: [Xaa]w LSQETF, [Xaa]x RLWKLL, [Xaa]y EN (LSQETF[R8]RLWKLL[S5]EN-NH2; staple 7-14; not fully specified (N-terminus))”, for which the “HDMX versus HDM2 binding selectivity” value in test [1] was “dual selectivity to HDMX and HDM2”.

Turning to “SAH-p53-4 D21A: Formula (I) stapled peptide: [Xaa]w LSQETF, [Xaa]x ALWKLL, [Xaa]y EN (LSQETF[R8]ALWKLL[S5]EN-NH2; staple 7-14; not fully specified (N-terminus))”, the “HDMX versus HDM2 binding selectivity” value was “HDMX selectivity over HDM2” in test [1] and “selectivity to HDMX” in test [1] (listed as SEQ ID NO:8).

B1: ATSP-7041 B26E (peptide)
peptide: LTF[R8]EYWAQE[S5]SAA-NH2
modifications: staple 4-11; not fully specified; printed as LTF8EYWAQEXSAA
notes: also called ATSP B26E; LTF8EYWAQEXSAA
B1: in test [2], the binding result is “no binding”.

B2: ATSP-7041 B26P (peptide)
peptide: Biotin-LTF[R8]EYWAQP[S5]SAA-NH2
modifications: staple 4-11
SMILES: CC(C)C[C@H](NC(=O)CCCC[C@@H]1SC[C@@H]2NC(=O)N[C@@H]21)C(=O)N[C@H](C(=O)N[C@@H](Cc1ccccc1)C(=O)N[C@]1(C)CCCCCCC=CCCC[C@@](C)(C(=O)N[C@@H](CO)C(=O)N[C@@H](C)C(=O)N[C@@H](C)C(N)=O)NC(=O)[C@@H]2CCCN2C(=O)[C@H](CCC(N)=O)NC(=O)[C@H](C)NC(=O)[C@H](Cc2c[nH]c3ccccc23)NC(=O)[C@H](Cc2ccc(O)cc2)NC(=O)[C@H](CCC(=O)O)NC1=O)[C@@H](C)O
Take B2: the binding result in test [2] was “no binding”.

B3: ATSP-7041 B26Q (peptide)
peptide: Biotin-LTF[R8]EYWAQQ[S5]SAA-NH2
modifications: staple 4-11
SMILES: CC(C)C[C@H](NC(=O)CCCC[C@@H]1SC[C@@H]2NC(=O)N[C@@H]21)C(=O)N[C@H](C(=O)N[C@@H](Cc1ccccc1)C(=O)N[C@]1(C)CCCCCCC=CCCC[C@@](C)(C(=O)N[C@@H](CO)C(=O)N[C@@H](C)C(=O)N[C@@H](C)C(N)=O)NC(=O)[C@H](CCC(N)=O)NC(=O)[C@H](CCC(N)=O)NC(=O)[C@H](C)NC(=O)[C@H](Cc2c[nH]c3ccccc23)NC(=O)[C@H](Cc2ccc(O)cc2)NC(=O)[C@H](CCC(=O)O)NC1=O)[C@@H](C)O
Regarding B3, the binding result in test [2] is “no binding”.

B4: ATSP-7041 B26K (peptide)
peptide: Biotin-LTF[R8]EYWAQK[S5]SAA-NH2
modifications: staple 4-11
SMILES: CC(C)C[C@H](NC(=O)CCCC[C@@H]1SC[C@@H]2NC(=O)N[C@@H]21)C(=O)N[C@H](C(=O)N[C@@H](Cc1ccccc1)C(=O)N[C@]1(C)CCCCCCC=CCCC[C@@](C)(C(=O)N[C@@H](CO)C(=O)N[C@@H](C)C(=O)N[C@@H](C)C(N)=O)NC(=O)[C@H](CCCCN)NC(=O)[C@H](CCC(N)=O)NC(=O)[C@H](C)NC(=O)[C@H](Cc2c[nH]c3ccccc23)NC(=O)[C@H](Cc2ccc(O)cc2)NC(=O)[C@H](CCC(=O)O)NC1=O)[C@@H](C)O
For B4, the binding result in test [2] is listed as “no binding”.

B5: ATSP-7041 B26R (peptide)
peptide: Biotin-LTF[R8]EYWAQR[S5]SAA-NH2
modifications: staple 4-11
SMILES: CC(C)C[C@H](NC(=O)CCCC[C@@H]1SC[C@@H]2NC(=O)N[C@@H]21)C(=O)N[C@H](C(=O)N[C@@H](Cc1ccccc1)C(=O)N[C@]1(C)CCCCCCC=CCCC[C@@](C)(C(=O)N[C@@H](CO)C(=O)N[C@@H](C)C(=O)N[C@@H](C)C(N)=O)NC(=O)[C@H](CCCNC(=N)N)NC(=O)[C@H](CCC(N)=O)NC(=O)[C@H](C)NC(=O)[C@H](Cc2c[nH]c3ccccc23)NC(=O)[C@H](Cc2ccc(O)cc2)NC(=O)[C@H](CCC(=O)O)NC1=O)[C@@H](C)O
For B5, the binding result in test [2] is “no binding”.

B6: ATSP-7041 B26D (peptide)
peptide: Biotin-LTF[R8]EYWAQD[S5]SAA-NH2
modifications: staple 4-11
SMILES: CC(C)C[C@H](NC(=O)CCCC[C@@H]1SC[C@@H]2NC(=O)N[C@@H]21)C(=O)N[C@H](C(=O)N[C@@H](Cc1ccccc1)C(=O)N[C@]1(C)CCCCCCC=CCCC[C@@](C)(C(=O)N[C@@H](CO)C(=O)N[C@@H](C)C(=O)N[C@@H](C)C(N)=O)NC(=O)[C@H](CC(=O)O)NC(=O)[C@H](CCC(N)=O)NC(=O)[C@H](C)NC(=O)[C@H](Cc2c[nH]c3ccccc23)NC(=O)[C@H](Cc2ccc(O)cc2)NC(=O)[C@H](CCC(=O)O)NC1=O)[C@@H](C)O
As to B6, the binding result in test [2] is given as “no binding”.

B7: ATSP-7041 B26N (peptide)
peptide: Biotin-LTF[R8]EYWAQN[S5]SAA-NH2
modifications: staple 4-11
SMILES: CC(C)C[C@H](NC(=O)CCCC[C@@H]1SC[C@@H]2NC(=O)N[C@@H]21)C(=O)N[C@H](C(=O)N[C@@H](Cc1ccccc1)C(=O)N[C@]1(C)CCCCCCC=CCCC[C@@](C)(C(=O)N[C@@H](CO)C(=O)N[C@@H](C)C(=O)N[C@@H](C)C(N)=O)NC(=O)[C@H](CC(N)=O)NC(=O)[C@H](CCC(N)=O)NC(=O)[C@H](C)NC(=O)[C@H](Cc2c[nH]c3ccccc23)NC(=O)[C@H](Cc2ccc(O)cc2)NC(=O)[C@H](CCC(=O)O)NC1=O)[C@@H](C)O
In the case of B7, the binding result in test [2] is “no binding”.

B8: ATSP-7041 B26G (peptide)
peptide: Biotin-LTF[R8]EYWAQG[S5]SAA-NH2
modifications: staple 4-11
SMILES: CC(C)C[C@H](NC(=O)CCCC[C@@H]1SC[C@@H]2NC(=O)N[C@@H]21)C(=O)N[C@H](C(=O)N[C@@H](Cc1ccccc1)C(=O)N[C@]1(C)CCCCCCC=CCCC[C@@](C)(C(=O)N[C@@H](CO)C(=O)N[C@@H](C)C(=O)N[C@@H](C)C(N)=O)NC(=O)CNC(=O)[C@H](CCC(N)=O)NC(=O)[C@H](C)NC(=O)[C@H](Cc2c[nH]c3ccccc23)NC(=O)[C@H](Cc2ccc(O)cc2)NC(=O)[C@H](CCC(=O)O)NC1=O)[C@@H](C)O
With B8, the binding result in test [2] was “no binding”.

B9: ATSP-7041 B26C (peptide)
peptide: Biotin-LTF[R8]EYWAQC[S5]SAA-NH2
modifications: staple 4-11
SMILES: CC(C)C[C@H](NC(=O)CCCC[C@@H]1SC[C@@H]2NC(=O)N[C@@H]21)C(=O)N[C@H](C(=O)N[C@@H](Cc1ccccc1)C(=O)N[C@]1(C)CCCCCCC=CCCC[C@@](C)(C(=O)N[C@@H](CO)C(=O)N[C@@H](C)C(=O)N[C@@H](C)C(N)=O)NC(=O)[C@H](CS)NC(=O)[C@H](CCC(N)=O)NC(=O)[C@H](C)NC(=O)[C@H](Cc2c[nH]c3ccccc23)NC(=O)[C@H](Cc2ccc(O)cc2)NC(=O)[C@H](CCC(=O)O)NC1=O)[C@@H](C)O
For the molecule B9, in test [2], the binding result was “no binding”.

B10: ATSP-7041 B26H (peptide)
peptide: Biotin-LTF[R8]EYWAQH[S5]SAA-NH2
modifications: staple 4-11
SMILES: CC(C)C[C@H](NC(=O)CCCC[C@@H]1SC[C@@H]2NC(=O)N[C@@H]21)C(=O)N[C@H](C(=O)N[C@@H](Cc1ccccc1)C(=O)N[C@]1(C)CCCCCCC=CCCC[C@@](C)(C(=O)N[C@@H](CO)C(=O)N[C@@H](C)C(=O)N[C@@H](C)C(N)=O)NC(=O)[C@H](Cc2c[nH]cn2)NC(=O)[C@H](CCC(N)=O)NC(=O)[C@H](C)NC(=O)[C@H](Cc2c[nH]c3ccccc23)NC(=O)[C@H](Cc2ccc(O)cc2)NC(=O)[C@H](CCC(=O)O)NC1=O)[C@@H](C)O
In the case of B10, the binding result in test [2] is listed as “no binding”.
